Patent US20260108614A1, “IMMOBILIZED ENDOGLYCOSIDASE FUSION PROTEIN AND USE THEREOF” (GENEQUANTUM HEALTHCARE (SUZHOU) CO., LTD., priority 2022, published 2026)

Assay: Isoelectric point
Format: physicochemical
Conditions: method not stated

B1: Halo-Endo S2-His: endoglycosidase fusion protein: Halo tag, Endo S2 and His tag, SEQ ID NO: 1 (protein)
chain: MAEIGTGFPFDPHYVEVLGERMHYVDVGPRDGTPVLFLHGNPTSSYVWRNIIPHVAPTHRCIAPDLIGMGKSDKPDLGYFFDDHVRFMDAFIEALGLEEVVLVIHDWGSALGFHWAKRNPERVKGIAFMEFIRPIPTWDEWPEFARETFQAFRTTDVGRKLIIDQNVFIEGTLPMGVVRPLTEVEMDHYREPFLNPVDREPLWRFPNELPIAGEPANIVALVEEYMDWLHQSPVPKLLFWGTPGVLIPPAEAARLAKSLPNCKAVDIGPGLNLLQEDNPDLIGSEIARWLSTLEISGGGGGSGGGGSMDKHLLVKRTLGCVCAATLMGAALATHHDSLNTVKAEEKTVQTGKTDQQVGAKLVQEIREGKRGPLYAGYFRTWHDRASTGIDGKQQHPENTMAEVPKEVDILFVFHDHTASDSPFWSELKDSYVHKLHQQGTALVQTIGVNELNGRTGLSKDYPDTPEGNKALAAAIVKAFVTDRGVDGLDIDIEHEFTNKRTPEEDARALNVFKEIAQLIGKNGSDKSKLLIMDTTLSVENNPIFKGIAEDLDYLLRQYYGSQGGEAEVDTINSDWNQYQNYIDASQFMIGFSFFEESASKGNLWFDVNEYDPNNPEKGKDIEGTRAKKYAEWQPSTGGLKAGIFSYAIDRDGVAHVPSTYKNRTSTNLQRHEVDNISHTDYTVSRKLKTLMTEDKRYDVIDQKDIPDPALREQIIQQVGQYKGDLERYNKTLVLTGDKIQNLKGLEKLSKLQKLELRQLSNVKEITPELLPESMKKDAELVMVGMTGLEKLNLSGLNRQTLDGIDVNSITHLTSFDISHNSLDLSEKSEDRKLLMTLMEQVSNHQKITVKNTAFENQKPKGYYPQTYDTKEGHYDVDNAEHDILTDFVFGTVTKRNTFIGDEEAFAIYKEGAVDGRQYVSKDYTYEAFRKDYKGYKVHLTASNLGETVTSKVTATTDETYLVDVSDGEKVVHHMKLNIGSGAIMMENLAKGAKVIGTSGDFEQAKKIFDGEKSDRFFTWGQTNWIAFDLGEINLAKEWRLFNAETNTEIKTDSSLNVAKGRLQILKDTTIDLEKMDIKNRKEYLSNDENWTDVAQMDDAKAIFNSKLSNVLSRYWRFCVDGGASSYYPQYTELQILGQRLSNDVANTLKDHHHHHHHHHH
modifications: Halo-Endo S2-His
B1 showed an isoelectric point of 5.5.
